These are literature values, as cited in article PMC2900478.

For orientation: Kd means a measure of binding affinity in units of concentration.

The series has as its target GABARAP (Homo sapiens) (UniProt O95166).
UniProt O95166, sequence (O95166 1-116): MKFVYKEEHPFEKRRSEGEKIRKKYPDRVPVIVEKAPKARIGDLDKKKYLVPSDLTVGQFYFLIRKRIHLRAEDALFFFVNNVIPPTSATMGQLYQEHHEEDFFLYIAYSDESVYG

Take Nix (from UniProt O60238): the Kd was 100 µM.
